Paper PMC4443670, “The C-terminal region of the motor protein MCAK controls its structure and activity through a conformational switch” (eLife, 2015)
Substitutions are numbered along the chain they refer to. Names and notes keep the numbering of the source.

B1: GST-CT_(S715A) domain (domain or fragment, human, UniProt Q99661 700-725, looked up)
chain: VIKALRLAMQLEEQAARQISSKKRPQ
notes: MCAK (Kif2c) CT domain, human, residues 700-725 as stated (the printed primers of the parent encode 701-725); source: E. coli BL21(DE3) Codon plus, purified (glutathione-sepharose, gel filtration)
B2: MCAK C-terminal tail (CT) domain, GST cleaved and removed (peptide, UniProt Q99661 700-725, looked up)
chain: VIKALRLAMQLEEQASRQISSKKRPQ
notes: MCAK (Kif2c) C-terminal tail (CT domain), human, residues 700-725 as stated; also called free CT domain; C terminus; source: E. coli BL21(DE3) Codon plus, purified as GST fusion, GST cleaved with GST-3C protease and removed
B3: GST-CT_(E712C) domain (domain or fragment, human, UniProt Q99661 700-725, looked up)
chain: VIKALRLAMQLECQASRQISSKKRPQ
notes: MCAK (Kif2c) CT domain, human, residues 700-725 as stated (the printed primers of the parent encode 701-725); Designed to form a disulphide bridge with Cys287 of the motor domain without DTT; source: E. coli BL21(DE3) Codon plus, purified (glutathione-sepharose, gel filtration)
B4: His-MCAK (1-725), full-length MCAK (natural protein, human, UniProt Q99661 1-725, looked up)
chain: MAMDSSLQARLFPGLAIKIQRSNGLIHSANVRTVNLEKSCVSVEWAEGGATKGKEIDFDDVAAINPELLQLLPLHPKDNLPLQENVTIQKQKRRSVNSKIPAPKESLRSRSTRMSTVSELRITAQENDMEVELPAAANSRKQFSVPPAPTRPSCPAVAEIPLRMVSEEMEEQVHSIRGSSSANPVNSVRRKSCLVKEVEKMKNKREEKKAQNSEMRMKRAQEYDSSFPNWEFARMIKEFRATLECHPLTMTDPIEEHRICVCVRKRPLNKQELAKKEIDVISIPSKCLLLVHEPKLKVDLTKYLENQAFCFDFAFDETASNEVVYRFTARPLVQTIFEGGKATCFAYGQTGSGKTHTMGGDLSGKAQNASKGIYAMASRDVFLLKNQPCYRKLGLEVYVTFFEIYNGKLFDLLNKKAKLRVLEDGKQQVQVVGLQEHLVNSADDVIKMIDMGSACRTSGQTFANSNSSRSHACFQIILRAKGRMHGKFSLVDLAGNERGADTSSADRQTRMEGAEINKSLLALKECIRALGQNKAHTPFRESKLTQVLRDSFIGENSRTCMIATISPGISSCEYTLNTLRYADRVKELSPHSGPSGEQLIQMETEEMEACSNGALIPGNLSKEEEELSSQMSSFNEAMTQIRELEEKAMEELKEIIQQGPDWLELSEMTEQPDYDLETFVNKAESALAQQAKHFSALRDVIKALRLAMQLEEQASRQISSKKRPQ
notes: MCAK (Kif2c), human, residues 1-725, full length; Cloned in the pFL vector; also called wild type MCAK; Kif2c; source: Sf9 (baculovirus), purified
B5: His-MCAK_(E712C), full length (natural protein, human, UniProt Q99661 1-725, looked up)
chain: B4 chain with E712C
notes: MCAK (Kif2c), human, residues 1-725, full length; Without DTT a disulphide between Cys712 and Cys287 is intended; also called full-length MCAK_(E712C); source: Sf9 (baculovirus), purified
B6: His-MCAK_(S715E), full length (natural protein, human, UniProt Q99661 1-725, looked up)
chain: B4 chain with S715E
notes: MCAK (Kif2c), human, residues 1-725, full length; also called full-length MCAK_(S715E); source: Sf9 (baculovirus), purified
B7: GST-CT_(R716A) domain (domain or fragment, human, UniProt Q99661 700-725, looked up)
chain: VIKALRLAMQLEEQASAQISSKKRPQ
notes: as for B1
B8: GST-CT_(I718A) domain (domain or fragment, human, UniProt Q99661 700-725, looked up)
chain: VIKALRLAMQLEEQASRQASSKKRPQ
notes: as for B1

Assays:
[1] = molecular target: T1, His-MCAK motor region with the neck linker region (M) (human, UniProt Q99661 183-583); experiment: pull-down; resin-based binding assay: GST-CT or GST-CT point mutants (GST as a control) on glutathione agarose beads; purified His-M, His-NM or cleaved CT domain added; Coomassie-stained gel; conditions: both partners purified
T1 construct: MCAK (Kif2c), human, neck linker region and motor region; the methods state residues 183-583, the results state 181-583; Cloned in pET3aTr; also called motor domain; MCAK motor domain; source: E. coli BL21(DE3) Codon plus, purified (Ni-NTA, gel filtration)

[2] = molecular target: T1, His-MCAK motor region with the neck …; experiment: SEC-MALS; motor domain with CT domain; Superdex 200 10/300 GL; 2 mg/ml in 100 mM HEPES, pH 7.2, 150 mM NaCl; conditions: both partners purified
[3] = molecular target: B6; experiment: co-sedimentation; competition: 100 nM full-length MCAK_(S715E) with 2 μM taxol-stabilized microtubules and increasing concentration of cleaved free CT domain; western blot; conditions: both partners purified
[4] = molecular target: T1, His-MCAK motor region with the neck …; experiment: other fluorescence titration; intrinsic tryptophan/aromatic fluorescence (excitation 295 and 280 nm) of 1 μM motor domain, CT domain titrated 0 to 15,660 nM; 25°C; 100 mM HEPES, pH 7.4, 150 mM NaCl; motor pre-treated with EDTA to remove ADP; conditions: both partners purified
[5] = molecular target: T1, His-MCAK motor region with the neck …; experiment: SEC; analytical gel filtration of the motor with GST-CT_(E712C) under oxidizing conditions; fractions on Coomassie-stained SDS-PAGE; conditions: both partners purified
[6] = molecular target: the molecule itself; experiment: SEC; gel filtration of full-length MCAK proteins alone; elution compared with wild type full-length MCAK

Binder | binding result [1] | binding result [6] | also measured
B1 | binds | – | –
B2 | – | – | stoichiometry N [2]: 0.5 CT domain per motor domain; binding result [3]: binds; Kd [4]: ~1100 nM
B3 | – | – | stoichiometry N [5]: 0.5 CT domain per motor
B4 | – | binds | –
B5 | – | binds | –
B6 | – | binds | –
B7 | binds | – | –
B8 | binds | – | –
